Measurements as given in paper PMC5581047.

Target: GST-ERα (179-312), C/D domains (UniProt P03372)
Assay: pull-down; GST-ERα domains or full length bound to glutathione-Sepharose 4B beads, incubated with recombinant Api5 protein; Western blot

B1: Recombinant Api5 protein (natural protein)
chain: MPTVEELYRNYGILADATEQVGQHKDAYQVILDGVKGGTKEKRLAAQFIPKFFKHFPELADSAINAQLDLCEDEDVSIRRQAIKELPQFATGENLPRVADILTQLLQTDDSAEFNLVNNALLSIFKMDAKGTLGGLFSQILQGEDIVRERAIKFLSTKLKTLPDEVLTKEVEELILTESKKVLEDVTGEEFVLFMKILSGLKSLQTVSGRQQLVELVAEQADLEQTFNPSDPDCVDRLLQCTRQAVPLFSKNVHSTRFVTYFCEQVLPNLGTLTTPVEGLDIQLEVLKLLAEMSSFCGDMEKLETNLRKLFDKLLEYMPLPPEEAENGENAGNEEPKLQFSYVECLLYSFHQLGRKLPDFLTAKLNAEKLKDFKIRLQYFARGLQVYIRQLRLALQGKTGEALKTEENKIKVVALKITNNINVLIKDLFHIPPSYKSTVTLSWKPVQKVEIGQKRASEDTTSGSPPKKSSAGPKRDARQIYNPPSGKYSSNLGNFNYEQRGAFRGSRGGRGWGTRGNRSRGRLY
percent of the binding of Api5 to full length GST-ERα (1-595): > 60%
